# Results taken from patent US20120107330A1 (published 2012).
# Read-outs that look alike come from different tables or passages of the source. Ends that are not written are not given here.
# T1: human TNFR1 on MRC-5 cells (human, UniProt P19438 30-455)
# T1 sequence (looked up): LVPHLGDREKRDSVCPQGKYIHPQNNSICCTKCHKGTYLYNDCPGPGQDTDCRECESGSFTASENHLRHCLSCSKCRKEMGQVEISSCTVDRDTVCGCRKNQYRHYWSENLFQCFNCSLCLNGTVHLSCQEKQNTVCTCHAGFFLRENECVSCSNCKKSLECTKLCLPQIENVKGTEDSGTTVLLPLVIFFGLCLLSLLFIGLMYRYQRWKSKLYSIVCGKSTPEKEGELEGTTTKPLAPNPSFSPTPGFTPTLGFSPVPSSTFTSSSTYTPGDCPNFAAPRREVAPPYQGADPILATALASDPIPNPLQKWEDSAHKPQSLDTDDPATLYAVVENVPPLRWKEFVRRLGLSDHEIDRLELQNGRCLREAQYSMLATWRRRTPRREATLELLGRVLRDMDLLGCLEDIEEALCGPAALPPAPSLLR
# T2: mouse TNFR1 on L929 cells (mouse, UniProt P25118 30-454)
# T2 sequence (looked up): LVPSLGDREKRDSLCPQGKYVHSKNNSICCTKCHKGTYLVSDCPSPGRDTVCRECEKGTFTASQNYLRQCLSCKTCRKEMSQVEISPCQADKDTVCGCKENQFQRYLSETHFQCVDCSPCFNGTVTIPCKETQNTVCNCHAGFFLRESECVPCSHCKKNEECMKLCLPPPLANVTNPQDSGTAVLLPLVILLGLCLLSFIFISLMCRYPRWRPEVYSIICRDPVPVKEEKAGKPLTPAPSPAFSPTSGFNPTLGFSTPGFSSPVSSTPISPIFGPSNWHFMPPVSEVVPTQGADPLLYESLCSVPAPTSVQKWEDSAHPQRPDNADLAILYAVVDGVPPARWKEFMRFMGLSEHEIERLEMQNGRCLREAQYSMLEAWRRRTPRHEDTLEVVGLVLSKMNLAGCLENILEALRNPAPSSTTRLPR
# T3: human TNFR1 (recombinant, R&D Systems cat no. 636-R1/CF, biotinylated) (human, UniProt P19438 30-211, limits assumed, biotinylated with EZ-Link NHS-LC-LC-biotin)
# T3 construct: it is not tied to the BIAcore reagent; also called p55; hTNFR1
# T3 sequence (looked up): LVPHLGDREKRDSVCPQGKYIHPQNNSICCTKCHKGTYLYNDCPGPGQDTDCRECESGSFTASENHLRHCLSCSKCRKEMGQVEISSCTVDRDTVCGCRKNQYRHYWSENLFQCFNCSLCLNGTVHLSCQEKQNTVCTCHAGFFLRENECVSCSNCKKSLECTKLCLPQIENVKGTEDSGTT
# T4: peptide D2 (domain-1 peptide of human TNFR1) (human, cysteine pairing not given here; also: biotinylated, position not given here)
# T4 construct: also called peptide 1
# T4 peptide: SGSGNSICCTKCHKGTYLY
# T5: peptide A3 (negative control fragment of human TNFR1) (human, cysteine pairing not given here; also: biotinylated, position not given here)
# T5 construct: also called control peptide
# T5 peptide: SGSGNDCPGPGQDTDCREC
# T6: peptide E5 (overlapping domain-3 peptide of human TNFR1) (human, also: biotinylated, position not given here)
# T6 construct: also called peptide 3
# T6 peptide: SGSGNQYRHYWSENLFQCF
# T7: peptide D5 (domain-3 peptide of human TNFR1) (human, also: biotinylated, position not given here)
# T7 construct: also called peptide 2
# T7 peptide: SGSGCRKNQYRHYWSENLF
# Key:
# [1] = target: human TNFR1 (recombinant, R&D Systems cat no. 636-R1/CF, biotinylated) (human) (UniProt P19438); test: BIAcore, human TNFR1 on SA chip, second injection after DOM1h-574-16 as competitor
# [2] = target: T1, human TNFR1 on MRC-5 cells; test: cell-based or functional assay
# [3] = target: T2, mouse TNFR1 on L929 cells; test: cell-based or functional assay
# [4] = target: T3, human TNFR1 (recombinant, R&D Systems …); test: BIAcore, TNFR1 (species not given, taken as human)
# [5] = target: T3, human TNFR1 (recombinant, R&D Systems …); test: BIAcore, biotinylated human TNFR1 on SA chip, purified dAb injected (concentration not given)
# [6] = target: T3, human TNFR1 (recombinant, R&D Systems …); test: BIAcore, human TNFR1 on SA chip
# [7] = target: T4, peptide D2 (domain-1 peptide of human …); test: BIAcore, biotinylated peptide D2 on SA chip
# [8] = target: T5, peptide A3 (negative control fragment …); test: BIAcore, biotinylated peptide A3 on SA chip
# [9] = target: T8, TNFR1-Fc fusion (R&D Systems Cat #372-RI) (human, UniProt P19438 30-211); test: receptor binding assay: TNFR1-Fc on anti-IgG beads, dAb titrated, blocked ligand TNFα detected with biotinylated anti-TNFα and fluorescent streptavidin (FMAT)
# T8 construct: range 30-211; also called TNFR1-containing beads; not shown: Human IgG1 (Pro100-Lys330)
# Procedure: The potency of the dAbs was determined against human TNFR1 in a receptor binding assay. This assay measures the binding of TNF-alpha to TNFR1 and the ability of soluble dAb to block this interaction. The TNFR1-Fc fusion (R&D Systems, Cat#372-RI.) is captured on a bead pre-coated with goat anti-human IgG (Spherotech, Cat#HUP-60-S). The receptor coated beads are incubated with TNF-alpha (10 ng/ml, Peprotech Cat#300-01A), dAb, biotin conjugated anti-TNF-alpha (Hycult Biotechnology Cat#HM2027.) and streptavidin Alexa Fluor 647 (Molecular Probes, (Invitrogen) Cat#32357) in a black sided clear bottomed 384 well plate. After 6 hours the plate is read on the ABI 8200 Cellular Detection system and bead associated fluorescence determined. If the dAb blocks TNF-alpha binding to TNFR1 the fluorescent intensity will be reduced.
# [10] = target: T6, peptide E5 (overlapping domain-3 …); test: BIAcore, biotinylated peptide E5 on SA chip
# [11] = target: T7, peptide D5 (domain-3 peptide of human …); test: BIAcore, biotinylated peptide D5 on SA chip
# [12] = target: T8, TNFR1-Fc fusion (R&D Systems Cat …); test: receptor binding assay: TNFR1-Fc on beads incubated with the dAb, then with TNFα (blocked ligand); % inhibition of TNFα binding to TNFR1
# [13] = target: T6, peptide E5 (overlapping domain-3 …); test: BIAcore, biotinylated peptide E5 on SA chip
# [14] = target: T5, peptide A3 (negative control fragment …); test: BIAcore, biotinylated peptide A3 on SA chip
# [15] = target: T7, peptide D5 (domain-3 peptide of human …); test: BIAcore, biotinylated peptide D5 on SA chip
# [16] = target: T4, peptide D2 (domain-1 peptide of human …); test: BIAcore, biotinylated peptide D2 on SA chip
Molecule,MRC5 ND50 [2],L929 ND50 [3],Kd [4],koff [4],kon [4],also measured
"mAb Clone 4.12 (Invitrogen, cat. no. Zymed 33-0100) (antibody)",,,,,,decrease of binding (RUs) in the presence of the competitor [1]: 20%
"DMS0132 (bispecific antibody, anti-TNFR1 dAb / AlbudAb in-line fusion) EVQLLESGGGLVQPGGSLRLSCAASGFTFVKYSMGWVRQAPGKGLEWVSQISDTADRTYYAHSVKGRFTISRDNSKNTLYLQMNSLRAEDTAVYYCAIYTGRWVPFEYWGQGTLVTVSSASTDIQMTQSPSSLSASVGDRVTITCRASRPIGTTLSWYQQKPGKAPKLLILWNSRLQSGVPSRFSGSGSGTDFTLTISSLQPEDFATYYCAQAGTHPTTFGQGTKVEIKR",1.04 nM,6.8 nM,0.25 nM,4.6e-05 s⁻¹,190000 M⁻¹ s⁻¹,
"DMS0133 (bispecific antibody, anti-TNFR1 dAb / AlbudAb in-line fusion) EVQLLESGGGLVQPGGSLRLSCAASGFTFFKYSMGWVRQAPGKGLEWVSQISDTADRTYYAHSVKGRFTISRDNSKNTLYLQMNSLRAEDTAVYYCAIYTGRWAPFEYWGQGTLVTVSSASTDIQMTQSPSSLSASVGDRVTITCRASRPIGTTLSWYQQKPGKAPKLLILWNSRLQSGVPSRFSGSGSGTDFTLTISSLQPEDFATYYCAQAGTHPTTFGQGTKVEIKR",0.99 nM,4.2 nM,0.2 nM,3.6e-05 s⁻¹,~180000 M⁻¹ s⁻¹,
"DMS0134 (bispecific antibody, anti-TNFR1 dAb / AlbudAb in-line fusion) EVQLLESGGGLVQPGGSLRLSCAASGFTFFKYSMGWVRQAPGKGLEWVSQISDTADRTYYAHSVKGRFTISRDNSKNTLYLQMNSLRAEDTAVYYCAIYTGRWVPFEYWGQGTLVTVSSASTDIQMTQSPSSLSASVGDRVTITCRASRPIGTTLSWYQQKPGKAPKLLILWNSRLQSGVPSRFSGSGSGTDFTLTISSLQPEDFATYYCAQAGTHPTTFGQGTKVEIKR",0.96 nM,5.8 nM,0.26 nM,4.9e-05 s⁻¹,190000 M⁻¹ s⁻¹,
"DMS0135 (bispecific antibody, anti-TNFR1 dAb / AlbudAb in-line fusion) EVQLLESGGGLVQPGGSLRLSCAASGFTFFKYSMGWVRQAPGKGLEWVSQISDTADRTYYSHSVKGRFTISRDNSKNTLYLQMNSLRAEDTAVYYCAIYTGRWVPFEYWGQGTLVTVSSASTDIQMTQSPSSLSASVGDRVTITCRASRPIGTTLSWYQQKPGKAPKLLILWNSRLQSGVPSRFSGSGSGTDFTLTISSLQPEDFATYYCAQAGTHPTTFGQGTKVEIKR",1.17 nM,5.9 nM,0.32 nM,5.7e-05 s⁻¹,180000 M⁻¹ s⁻¹,
"DOM1h-509 (other, VH domain antibody (dAb)) VH: EVQLLESGGGLVQPGGSLRLSCAASGFTFSQYRMHWVRQAPGKSLEWVSSIDTRGSSTYYADPVKGRFTISRDNSKNTLYLQMNSLRAEDTAVYYCAKAVTMFSPFFDYWGQGTLVTVSS",,,,,,binding result [5]: binds
"DOM1h-543 (other, VH dAb) VH: EVQLLESGGGLVQPGGSLRLSCAASGFTFMRYRMHWVRQAPGKGLEWVSSIDSNGSSTYYADSVKGRFTISRDNSKNTLYLQMNSLRAEDTAVYYCAKDRTERSPVFDYWGQGTLVTVSS",,,,,,binding result [6]: binds
"DOM1h-131-511 (other, also called control dAb) VH: EVQLLESGGGLVQPGGSLRLSCAASGFTFAHETMVWVRQAPGKGLEWVSHIPPVGQDPFYADSVKGRFTISRDNSKNTLYLQMNSLRAEDTAVYYCALLPKRGPWFDYWGQGTLVTVSS",,,,,,binding result [7]: no binding (tested: 2.5 µM); binding result [8]: no binding (tested: 2.5 µM); IC50 (read off the curve) [9]: ~0.1 nM; binding result [10]: no binding (tested: 2.5 µM); binding result [11]: no binding (tested: 2.5 µM); IC50 (read off the curve) [12]: ~0.1 nM
"DOM1h-549 (other, VH dAb) VH: EVQLLESGGGLVQPGGSLRLSCAASGFTFVDYEMHWVRQAPGKGLEWVSSISESGTTTYYADSVKGRFTISRDNSKNTLYLQMNSLRAEDTAVYYCAKRRFSASTFDYWGQGTLVTVSS",,,,,,binding result [5]: binds
"DOM1m-21-23 (other, VH dAb; also called DOM1m-12-23 [sic]) VH: EVQLLESGGGLVQPGGSLRLSCAASGFTFNRYSMGWLRQAPGKGLEWVSRIDSYGRGTYYEDPVKGRFSISRDNSKNTLYLQMNSLRAEDTAVYYCAKISQFGSNAFDYWGQGTQVTVSS",,,,,,binding result [13]: no binding (tested: 2.5 µM); binding result [14]: no binding (tested: 2.5 µM); binding result [15]: no binding (tested: 2.5 µM); binding result [16]: no binding (tested: 2.5 µM)
